The values that follow are results of earlier work, collected in article PMC6963985.

The target in this data set is CTLA-4 (Homo sapiens) (UniProt P16410).
UniProt P16410, sequence (P16410 36-161): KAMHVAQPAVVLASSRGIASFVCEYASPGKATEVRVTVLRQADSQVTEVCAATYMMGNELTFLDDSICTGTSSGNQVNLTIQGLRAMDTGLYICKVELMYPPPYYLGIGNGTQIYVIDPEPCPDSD

One may read the Kd as the constant that tells how readily two partners part at equilibrium. On to Tremelimumab, for which the Kd was 5.9 nM.
